Test results published in the DeepSol protein solubility set.

Test: soluble on expression in E. coli; label from the status in PepcDB or PDB records

Sequence | soluble on expression in E. coli
MLYKSSLAVAISALIAGQVSAAGFQVAEHSASGLGRAFSGEAAVADNASVLARNPAAMMLFETAQFSGALSIVDPEVNVDDLSNNQSMKDVAPLQIVPAAYYIRPINDQWAWGLAMFTTYGVATDYPNEIYAGDLAGDTSLISVNLNPNIAYRVNPELSLGFGLDLVAAKAKLTRHKGGLAPFMGGGNPSDNLIGMTGETLALGWNIGALYELDEQNRIGFGYRSRVKLNFDDGEFSSYDSGIATSAVVPGQLKIELPAIWELSGFHQLNEQWAVHYSYQQTDWSSFEELTATSSQCKNGTCFQKIEQYQDNGRWSVGATYTLNTTWTLRAGLAFDEQAGKATLSIPDSDRFWYSAGLTYTLTPQLTMDAGFALVQSRKGSFTEKNQIGQNLQFESEAVAYISALQFNYRFH | not soluble
MNTDTFMCSSDEKQTRSPLSLYSEYQRMEIEFRAPHIMPTSHWHGQVEVNVPFDGDVEYLINNEKVNINQGHITLFWACTPHQLTDTGTCQSMAIFNLPMHLFLSWPLDKDLINHVTHGMVIKSLATQQLSPFEVRRWQQELNSPNEQIRQLAIDEIGLMLKRFSLSGWEPILVNKTSRTHKNSVSRHAQFYVSQMLGFIAENYDQALTINDVAEHVKLNANYAMGIFQRVMQLTMKQYITAMRINHVRALLSDTDKSILDIALTAGFRSSSRFYSTFGKYVGMSPQQYRKLSQQRRQTFPG | soluble
MGSDKIHHHHHHMLKDKMIAKGAKYIQSIYQDPFIQGIIKGRLDHDVICHYLQADNIYLGKFADIYALCLAKSDNLRDKQFFLEQIDFTLNRELADGEGPHQALAAYTNRSYQDIIEKGVWYPSADHYIKHMYFHFYENGIAGALAAMSPCPWIYHQLAKKIIEENQFLNGNPFNNWITFYANDTVEELMENYFRMMDYYAQNLSKEKQADLVDAFVKSCQHERRFFQMAINQEKWED | not soluble
MAHHHHHHMSLLKADQLRRDLFIKYSDKIAELLGETEECSPTEEQREKEEIETTEQRGLSSLPKRFRISYPRQHLLRQRAMQMPPAADVGDAENSPASASNSTCPPLGETATDEDENVETIWVELDEEEKRPVYNEPYPSVKRMMRRMQDESLRLLMREARIPVTPHQGDAYLLQRMEVLQQLEKNIGDDRIKILARLQKMDGKLHTCE | soluble
MGSDKIHHHHHHMRLVVDGFGKYLGIENGLIVVKEKGKALRKVRPEDLKQVLIIGKAAISSDAIKLLLKNRVDVVFLDFNGEILGRLSHPLIGTAKTRREQYLAYGDKRGVHLAKEFIKAKMANQMAILTNLAKARKDSNPEVAESLLKAKKEIDACLNELDGVEAEMIDKVRERLLGIEGKASKHYWDAISLVIPEEYRFNGRRGIEIGSPRYAKDIVNAMLNYGYSILLAECVKAVELAGLDPYAGFLHVDVSGRSSLAIDLMENFRQQVVDRVVLRLISYRQIKPEDCEKRNMVCQLSDNARRLLLASLLERLDSKTQYRGRNLAYSSIILLHARDVVAFLRGERRYEGFVQKW | not soluble
MAHHHHHHMPAKSAKSKTQTLRDERKLGVEKLVELVFIGRPRTLSFSHRSLGSLRHPYSSLICETSAACASTQDKIMYLLEVFLEAKAEKKAWMRVERIFDSMLGDALMEKMKLGLLLSSELLQRFEVLWIRLGGVNGGFIFEDAYKQFHQHLYFTLFGIEQMTLLPATMQFILEDYQYDSHDKSGIDFGSFAHSMLELADNWAGSREVTDYVAFMDKIIECYPASAVKPCKTHAPDELTLSKDAFFRGGVVVPRVEGEQIVYHRITL | not soluble
MSNEDSLPPFTLFGLDDVENYGLVTEADNSLPLDIHNQVFQLVEKGNQSFKESRFEEAISSYSKANSIKPLDPIVLGNRSAAYIRFGQYLKQRSASISEYKPLNGFDMSMLGELALKDADKLMSLQSSLVKSYITKACALMLLERYEVARDTILSGLQIDPFSGPLRSNLQELEKVMPNSMRKTHGMAERSDDFDCTVCLKLLYEPATTPCGHTFCRSCLFQSMDRGNKCPLCRTVIFMTPRTCAVSVTLNNIIEKNFPEEYAERKSEQDTLVHLGNESMPLFVMDVIIPCQKLSLHIFEPRYRLMVRRIMEGNHRMGMVALDSATGSPVDVACEVEITECDPLPDGRFVLELESHRRCRIVKAWDQDGYRVAEVEWVKDIPPQSEQGKADLRELTTSAASFARSWLDRAKEAARQGDRRRLEILLNVESMIPTPQDPERFSFWLATLTDRRPSERLELLRLQDTGEVLDYRLVQIARQISLFHQSLSFDC | not soluble
MSLKNKLQVKIPGKLYVAGEYAVVESGHTAILTAVNRYITLTLEDSERNELWIPHYENPVSWPIGGELKPDGEHWTFTAEAINIATTFLKSEGIELTPVKMVIETELIDQSGAKYGLGSSAAATVAVINALMTKFYPEISMLKKFKLAALSHLVVQGNGSCGDIASCMYGGWIAYTTFDQEWVKHRLAYKSLEWFMKEPWPMLQIETLEEPVPTFSVGWTGTPVSTGKLVSQIHAFKQEDSKNYQHFLTRNNEIMKQIIQAFHTKDEELLYSSIKENRRILQELGTKAGVNIETSLLKELADSAENMGGAGKSSGSGGGDCGIAFSKTKELAEKLVNEWEKLGIKHLPFHTGRVQITEGHHHHHH | soluble
MSLDEIKIEKLKKLDKKALNELIDVYMSGYEGLEEYGGEGRDYARNYIKWCWKKASDGFFVAKVGDKIVGFIVCDKDWFSKYEGRIVGAIHEFVVDKKFQGKGIGRKLLITCLDFLGKYNDTIELWVGEKNYGAMNLYEKFGFKKVGKSGIWVRMIKRQNLEGHHHHHH | soluble
KTEIHGDSTKATLEEGQQLTLTFISTKLDVAVGSCHSLVANFLDGFLKFQTGSNSAFDVVEVEEPAGPAVLTIGLGHKGRLAVVLDYTRLNAALGSAAYVVEDSGCSSSEEVSFQGVGSGATLVVTTLGESPTAVSA | soluble
MAHHHHHHMKPLAPFVCRLPSRRILRVRGTDAHDFLQGIFTNDLRELHPAGSMYGCFLYFTGRVLCDAHLYQCKQVHEGQASILVDVHERSATELLDHLTEMKMRKKVHIDDVGKELVVLAALEETSADAQRSRDSASGCDARESSVTSLSPETLEERHTECFLDPRNDALFPRPPPPSSSSPPAAVTSPSFCLRKCVVPATWAPPLSSPDSYTTLLYSRGIGEGPDVFKCNKSLPFEGNLDFLKGVSFHKGCYVGQELTHRTHVMLVTRKRTVPLHFGPANVDPPAAGIITDEGAVTKTWPVEVGEPLYSAAREKIGEVTGVCGQVGIGLFRLRYVDKATHTVPGLQLKDGTPVQTHLPDWWPRKDVKKLLQNNS | soluble
MTITALTVTLPLLWRRLTTAGVKYADQGHFVGSAGVPAADAGGRDAASEQIARWTQTCTVVLVCGHGPAKWAFRSWCTSRSCDTLPVALRYRLQSNPLVGKLTTKYFLPLGTRQVGDHVVFFNFGYEEDPPMALPLSESDEPNRYCIQLYHQTASQVDLTGKEVLEVSCGAGGGASYIARNLGPASYTGLDLNPASIDLCRAKHRLPGLQFVQGDAQNLPFPDESFDAVVNVEASHQYPDFRGFLAEVARVLRPGGHFLYTDSRRNPVVAEWEAALADAPLRTISQRDIGAQAKRGLDANTARSQEAIGRRAPVLLAGLTRCAVRVLDWDLRRGGGFSYRIYLFAKD | not soluble
SNSLHWPTSLPSGDAFSSVGTHRFVQKVEEMVQNHMTYSLQDVGGDANWQLVVEEGEMKVYRREVEENGIVLDPLKATHAVKGVTGHEVCNYFWNVDVRNDWETTIENFHVVETLADNAIIIYQTHKRVWPASQRDVLYLSVIRKIPALTENDPETWIVCAFSVDHDSAPLNNRCVRAKINVAMICQTLVSPPEGNQEISRDNILCKITYVANVNPGGWAPASVLRAVAKREYPKFLKRFTSYVQEKTAGKPILF | soluble
MSDRIASEKLRSKLMSADEAAQFVNHGDKVGFSGFTGAGYPKALPTAIANRAKEAHGAGNDYAIDLFTGASTAPDCDGVLAEADAIRWRMPYASDPIMRNKINSGSMGYSDIHLSHSGQQVEEGFFGQLNVAVIEITRITEEGYIIPSSSVGNNVEWLNAAEKVILEVNSWQSEDLEGMHDIWSVPALPNRIAVPINKPGDRIGKTYIEFDTDKVVAVVETNTADRNAPFKPVDDISKKIAGNFLDFLESEVAAGRLSYDGYIMQSGVGNVPNAVMAGLLESKFENIQAYTEVIQDGMVDLIDAGKMTVASATSFSLSPEYAEKMNNEAKRYRESIILRPQQISNHPEVIRRVGLIATNGLIEADIYGNVNSTNVSGSRVMNGIGGSGDFTRNGYISSFITPSEAKGGAISAIVPFASHIDHTEHDVMVVISEYGYADLRGLAPRERVAKMIGLAHPDYRPLLEEYYARATSGDNKYMQTPHDLATAFDFHINLAKNGSMKA | soluble
MGHHHHHHSHMGVPYSVLEPVLERCTPDQLYRIEEYNHVLIEETDQLWKVHCHRDFKEERPEEYESWREMYLRLQDAREQRLRVLTKNIQFAHANKP | soluble
MSYYHHHHHHLESTSLYKKAGLNNFNLHTPTRILFGKGAIAGLREQIPHDARVLITYGGGSVKKTGVLDQVLDALKGMDVLEFGGIEPNPAYETLMNAVKLVREQKVTFLLAVGGGSVLDGTKFIAAAANYPENIDPWHILQTGGKEIKSAIPMGCVLTLPATGSESNAGAVISRKTTGDKQAFHSAHVQPVFAVLDPVYTYTLPPRQVANGVVDAFVHTVEQYVTKPVDAKIHDRFAEGILLTLIEDGPKALKEPENYDVRANVMWAATQALNGLIGAGVPQDWATHMLGHELTAMHGLDHAQTLAIVLPALWNEKRDTKRAKLLQYAERVWNITEGSDDERIDAAIAATRNFFEQLGVPTHLSDYGLDGSSIPALLKKLEEHGMTQLGENHDITLDVSRRIYEAAR | soluble
MGSDKIHHHHHHMPRSPSSQYLAIESLSRYAREERESALGIIRNVLQMSDIAPGRFNAAMQAVAMHGRIALHFHPDRFDSRGLTVAEGLLQDGRYRCQFETHISSGLLSPEIGGARDHWERQFFRELTTDIAARPKYGALDLLLAPNGPAPRFGSCYFLTKPEVLSRATFCFNDSYRNPRDKGTADAFEMVMAALLTESFERRYALGEHGLAPAKLVERLVSTLGEDIVMRFERGLSGNLDHYIEAQIHGPLSLAEDMEALVADPSFRGTEIEPLLRSIAERYQIALYWHSGLCLDVEHVVRDFRGAGMPSLAQRLAIDGNVTAYAIGVAAREVSRFPTRWRARGHKTEVLSELKWLWHLLVRYGAARDERETSFMLDESAPLQENVQAEPGGNDATCVQGTCKEEGFEASVTTEGAHTADAAAAVKDNSAS | not soluble
MSLSVPRSGLSVQMAQPARPLRADAARNRARILGVAYEAFATEGLSVPIDEIARRAGVGAGTVYRHFPTKEALCAAVIGDRMPHLVDDGYVLLKSAGPGEALFTYLRSLVLHWGATDRGLVDALAGAGGIDILGVAPDAEDAFLTILSDLLYAAQYAGTARTDVGVREVKSILVGCQAMEAYNSALAERVTDVVVDGLRAAREGHHHHHH | soluble
MGSDKIHHHHHHMKFFDREKEIAEILHILNREPDDVYFIYGPINSGKTALINEIINNRLDKDKYVVFYFDLREIFISKYDDFIEVLFEEYEGNKKPVEIIKSLIKDVPSLCGIPAPKNTLEEILKKKTTKNVFRYITKVLMDIKKEGKQPILIIDELQKIGDMKINGFLIYELFNYFVSLTKHKHLCHVFCLSSDSLFIERVYNEAMLDGRAKYLLVDDFDKETALKFMDFLAKENNISLTNEDKELIYNYVGGKPKDIKYVVEESNFKDLKEVLDYLLNDEISKLDMFLEILDYSKPRVEVGNEVIEINKEDIIKALRLFKDKYEIPKKDIPTPVYVYLVKENILFLNPQKRILKPQSYLVWNAIKRLL | not soluble
